Measurements reported in US20220242974A1 (QURE BIOTECHNOLOGY SHANGHAI, published 2022).

B1: QP1128 nanobody (VHH)
VHH: QVQLVESGGGSVQSGGSLRLSCAASGYTASAYYMAWFRQNSRKQREGVAAINRDGDTKYADSVKGRFTISRDDAKNTLYLQMNSLKPEDTAVYYCAASDWSRLYKIYWLDDNYYVRWGQGTQVTVSS
notes: as m59
B2: QP1127 nanobody (VHH)
VHH: QVQLVESGGGSVQSGGSLTLSCAISGYAYATYSMAWFRQAHGKEREGVAAINSDGHTTYVDSVKGRFTISRDNTNKNSYTLTLTMNNLNPEDTAMYYCAATSQLGFWAQKLWEAIRDGTWSPSTTDFGFWGRGTQVTVSS
notes: as m59
B3: QP1125 nanobody (VHH)
VHH: QVQLVESGGGLVQPGGSLRLSCTAPGFTDKTCAMAWYRQVAGIEREWVSSISTLGTTNYASSVKGRFTISKDNAKDTVYLQMNNLKPEDTAMYVCKTFSCRNRGGSYLPDTWGQGTQVTVSS
notes: as m59

What follows are binders tested against PD-L1-his fusion protein (Homo sapiens (Human), UniProt Q9NZQ7 19-238) (assay: ELISA, PD-L1-his coated, culture supernatant of the clone).
Chain of PD-L1-his fusion protein (Q9NZQ7 other isoform, or with tags, fused parts or gaps limits assumed): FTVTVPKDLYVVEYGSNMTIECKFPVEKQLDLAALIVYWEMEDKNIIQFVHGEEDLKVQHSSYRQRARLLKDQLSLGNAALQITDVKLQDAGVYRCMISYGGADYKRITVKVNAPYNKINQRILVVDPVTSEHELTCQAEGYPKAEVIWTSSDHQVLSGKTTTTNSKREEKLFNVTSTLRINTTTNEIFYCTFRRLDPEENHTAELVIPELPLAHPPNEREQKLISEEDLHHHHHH
B1: binds.
B2: binds.
B3: binds.
